Experimental data taken from the nanobody polyreactivity screen of Harvey et al. (2022).

assay: yeast display, Sf9 membrane polyspecificity reagent, FACS + sequencing; frameworks hold sequencing errors
Outline: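 Using colony PCR, genes from sorted yeast display clones were amplified, then sequenced on MiSeq at 2 × 250 and filtered by CDR length. The clones had been stained with 10% biotinylated, detergent-solubilized Sf9 membrane reagent for 1 hour at 4 °C and sorted by FACS into low and high (top ~1%) gates on anti-HA and streptavidin fluorescence. Polyreactivity labels come from the gate of origin.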

| Sequence | polyreactivity (PSR sort gate) |
| --- | --- |
| QVQLVESGGGLVQAGGSLRLSCAASGRTFKHYAMGWYRQAPGKERELVAAITSGGSTYYADSVKGRFTISRDNAKNTVYLQMNSLKPEDTAVYYCNKESYFDTYRRYDSWGQGTQVTVSS | low polyreactivity |
| QVQLVESGGGLVQAGGSLRLSCAASGRTFKKKVMGWYRHAPGKERELFAAISNGGSTNYADSVKGRFTISRDNSKNTDYLQMNSLKPEDTAVYDCAAYITWGGYHTPNWGYDYWGQGTQVTVSS | low polyreactivity |
| QVQLVESGGGLVQAGGSLRLSCAASGRTFKKYAMGWYSQAPGKERELVAAITVSGGSTYYADSVKGRFTVSRDNAKNTVYLQMNSLKPEDTAVYYCAAGSYSRYLFSLYFDFDYWGQGNQVTVSS | low polyreactivity |
| QVQLVESGGGLVQAGGSLRLSCAASGRTFKLYAMGWYRQAPGKERELVAAISRSGGSTYYADSVKGRFTISRDNAKNTVYLQMNSLKPEDTAVYYCNRRQGYHGDYDYWGQGTQVTVSS | high polyreactivity |
| QVQLVESGGGLVQAGGSLRLSCAASGRTFKNYAMGWYRQSPGKERELVAVISRRGSSTYYADSVKGRFTISRDNAKNTVYLQMNSLKPEDTAVYYSAARLGVPYPYIAYDYWGQGTQVTVSS | high polyreactivity |
| QVQLVESGGGLVQAGGSLRLSCAASGRTFKPYAMGWYRQAPGKERELVAAISSGVSTHYADSVKGRFTISRDNAKNTVYLQMNSLKPEDTAVYYCAADYWVNYWFDYWGQGTQVTVSS | low polyreactivity |
| QVQLVESGGGLVQAGGSLRLSCAASGRTFKPYTMGWYRQAPGKERELVATISTGTTSTYYADSVKGRFTISRDNAKNTVYLQMNSLKPEDTAVYYCAADSDSPVTYQSEDALEYWGQGTQVTVSS | low polyreactivity |
| QVQLVESGGGLVQAGGSLRLSCAASGRTFKQYAMGWYSQAPGKERELVAAISRTGGRTYYADSVKGRFTISRDNAKNTVYLQMNSLKPEDTAVYFCNAVYYWYKGDYWGQGTQVTVSS | high polyreactivity |
| QVQLVESGGGLVQAGGSLRLSCAASGRTFKRNAKGWYRQAPGKERELVAAISGTGASTYYADSVKGRFTISRDNAKNTVYLQMNSLKPEDTAVYYCAKYRYISNPVYLGDYWGQGTQVTVSS | high polyreactivity |
| QVQLVESGGGLVQAGGSLRLSCAASGRTFKRNTMGWYRQAPGKERELVAAISGTGSTNYADSVKGRFTISRDNAKNTVYLQMNSLKPEDTAVYYCGADDFSTVEYDYWGQGTQVTVSS | low polyreactivity |
| QVQLVESGGGLVQAGGSLRLSCAASGRTFKSYAMGWYRQAPGKERELVAAITWSGGSTYYADSVKGRFTISRDNAKNTVYLQMNSLKPEDTAVYYCAADSVYYYWYGYDYWGQGTQVTVSS | low polyreactivity |
| QVQLVESGGGLVQAGGSLRLSCAASGRTFKWYAMGWYRQAPGKERELVASISWSGGGTYYADSVKGRFTISRDNAKNTVYLQMNSLKPEDTAVYECAAEYYNWGDYGYDYWGQGTQVTVSS | high polyreactivity |
| QVQLVESGGGLVQAGGSLRLSCAASGRTFKYNAMGWSRPAPGKERELVAAISWSGGRTYYADSVKGRFTISRDNAKNTVYLQMNSLKPEDTAVYYCAAGVFKKYRPSGRYYYWGHGTQVTVSS | high polyreactivity |
| QVQLVESGGGLVQAGGSLRLSCAASGRTFKYNAMGWYRQAPGKERELVAAISSDDSTNYADSVKGRFTISRDNAKNTVYLQMNSLKPEDTAVYYCAARYGYSKWPDRVQAYKHDYWGQGTQVTVSS | low polyreactivity |
| QVQLVESGGGLVQAGGSLRLSCAASGRTFKYNAMGWYRQAPGKERELVAAISSTGSTNYADSVKGRFTISRDNAKNTVYLQMNSLKPEDTAVYYCAASYYFVQWGWYYYWGQGTQVTVSS | low polyreactivity |
| QVQLVESGGGLVQAGGSLRLSCAASGRTFKYNAMGWYRQAPGKERELVATISGSGGRTYYADSVKGRFTISRDNAKNTVYLQMNSLKPEDTAVYYCNAPRVKWLDWGQGTQVTVSS | high polyreactivity |
| QVQLVESGGGLVQAGGSLRLSCAASGRTFKYNAMGWYRQAPGNERELVAAISRSGGSTYYADSVKGRFTISRDNAKNTVYLQMNSLKPEDTAVYYCNAEYLWIRHIAEDYWGQGTQVTVSS | low polyreactivity |
| QVQLVESGGGLVQAGGSLRLSCAASGRTFKYYAMGWYRQAPGKERELVAAISSRGGSTYYADSVKGRFTISRDNAKNTVYLQMNSLKPEDTAVYYCAKGTYLSTSTVANDYWGQGTQVTVSS | high polyreactivity |
| QVQLVESGGGLVQAGGSLRLSCAASGRTFKYYAMGWYRQAPGKERELVATISYNGASTYYADSVKGRFTISRDNAKNTVYLQMNSLKPEDTAVYYCAAGYLWRGRLGYWGQGTQVTVSS | high polyreactivity |
| QVQLVESGGGLVQAGGSLRLSCAASGRTFKYYAMGWYSQAPGKERELVAAITRSGVSTSYADSVKGRFTISRDNAKNTVYLQMNSLKPEDTAVYYCNVYGYTYYTRGVGYWGQGTQVTVSS | high polyreactivity |
| QVQLVESGGGLVQAGGSLRLSCAASGRTFLDNAMGWYRQAPGNEWELVATICSSGGTRYYADSVKGSFTISRDNAKNTVYLPMHSQKPEDTAVYYCNALWWGRYYRPYVTPVLGRMEYWGQGTQVTVSS | low polyreactivity |
| QVQLVESGGGLVQAGGSLRLSCAASGRTFLFNGMGWYRQAPGKERELVASITRGGSTYADSVKGRFTISRDNAKNTVYLQMNSLKPEDTAVYYCAALTSRTYLWTTRPYDYWGQGTQVTVSS | high polyreactivity |

| Sequence | polyreactivity (PSR sort gate) |
| --- | --- |
| QVQLVESGGGLVQAGGSLRLSCAASGRTFLGNAMGWYRQAPGKERELVAAIRYSGGRTYYADSVKGRFTISRDNANNTVYLQMNSLKPEDTAVYYCAAELDGSNYPLDYWGQGTKVTVSS | low polyreactivity |
| QVQLVESGGGLVQAGGSLRLSCAASGRTFLGYAMGWYRQAPGKERELVAAISWDGTSTYYADSVKGRFTISRDNAKNTVYLQMNSLKPEDTAVYDCAAQLTDYQSKTLSYDYWGQGTQVTVSS | low polyreactivity |
| QVQLVESGGGLVQAGGSLRLSCAASGRTFLGYAMGWYRQAPGKERELVAGITSGGRTYYADSVKGRFTNSRDNAKNTVYLQMNSLKPEDTAVYYCAADTHGYDPMDYWGQGTQVTVSS | high polyreactivity |
| QVQLVESGGGLVQAGGSLRLSCAASGRTFLHYAMGWYRQAPGKEREFVAAIRTSGTSTYYADSVKGRFTISRDNAKNTVYLQMNSLKPEDTAVYYCAVARGSGWYWRSDYWGQGTQVTVSS | high polyreactivity |
| QVQLVESGGGLVQAGGSLRLSCAASGRTFLINAMGWYRQAPGKERELVAGINRNGGTTYYADSVKGRFTISRDNAKNTVYLQMNSLKPEDTAVYYCAKRYPSWFNYWGQGTQVTVSS | high polyreactivity |
| QVQLVESGGGLVQAGGSLRLSCAASGRTFLIYAMGWYRQAPGKERELVAAITNAVDSTYYADSVKGRFTISRDNAKNTVYLQMNSLKPEDTAVYYCNADTVVEWYSPSREYDYWGQGTQVTVSS | low polyreactivity |
| QVQLVESGGGLVQAGGSLRLSCAASGRTFLPNDMGWYRQAPGKERELVAAITDSGGDTYYADSVKGRFTISRDNAKNTVYLQMNSLKPEDTAVYYCASDYYYYGSYYPVEYWGQGTQVTVSS | high polyreactivity |
| QVQLVESGGGLVQAGGSLRLSCAASGRTFLPNPMGWYRPAPGKERELVAVITSVGSTNYADSVKGRCTISRDNAKNTVYLQMNSLKPEDTAVYFCAALKPRTRRAGFNYWGQGTQVTVSS | low polyreactivity |
| QVQLVESGGGLVQAGGSLRLSCAASGRTFLPYAMGWYRQAPGKERELVAAIDSSGGSTYYADSVKGRFTISRDNAKNTVYLQMNSLKPEDTAVYYCAADLYSSSYLYDSWGQGTQVTVSS | low polyreactivity |
| QVQLVESGGGLVQAGGSLRLSCAASGRTFLPYAMGWYRQAPGKERELVAAIDSSGGSTYYADSVKGRFTISRDNAKNTVYLQMNSLKPEDTAVYYCAADLYSSYYLYDSWGQGTQVTVSS | low polyreactivity |
| QVQLVESGGGLVQAGGSLRLSCAASGRTFLRNAMGWYRQAPGKERELVAAITSSGGRTYYADSVKGRFTISRDNAKNTVYLQMNSLKPEDTAVYYCATDTGWPGRDYWGQGTQVTVSS | high polyreactivity |
| QVQLVESGGGLVQAGGSLRLSCAASGRTFLRNAMGWYRQAPGKERELVAAITSSGGRTYYADSVKGRFTISRDNAKNTVYLQMNSLKPEDTAVYYCAVDVTVREWFEYYYWGQGTQVTVSS | high polyreactivity |
| QVQLVESGGGLVQAGGSLRLSCAASGRTFLRNDMVWYRQAPGKERELVAAISYSGGRTYYAVSVKGRFTISRDNAKNTVYLQMNSLKPEDTAVYYCAADRFFKAIRPYDYWGQGTQVTVSS | high polyreactivity |
| QVQLVESGGGLVQAGGSLRLSCAASGRTFLRYARGWYRQAPGKERELVAAISWSGGRTYYADSVKGRFTISRDNAKNTVYLQMNSLKPEDTAVYYCNKVVLYGAHYYYWGQGTQVTVSS | high polyreactivity |
| QVQLVESGGGLVQAGGSLRLSCAASGRTFLSYAMGWYRQAPGKDRELVAAIRRGSSTYYADSVKGRFTISRDNAKNTVYLQMNSLKPEDTAVYYCAARGRYRIGPGRYGKRYDYWGQGTQVTVSS | high polyreactivity |
| QVQLVESGGGLVQAGGSLRLSCAASGRTFLVYAMGWYRQAPGKERELVAAISYSDGNTYYADSVKGRFTISRDHAKNTVYLQMNSLKPEDTAVYYCNAVTYGYPYDYWGQGTQVTVSS | low polyreactivity |
| QVQLVESGGGLVQAGGSLRLSCAASGRTFLVYAMGWYRQAPGKERELVAAITSGGDTYADSVKGRFTISRDNAKNTVYLQMNSLKPEDTAVYYCAVQPDYFIVLWEYDYWGQGTQVTVSS | high polyreactivity |
| QVQLVESGGGLVQAGGSLRLSCAASGRTFLVYAMGWYRQAPGKERELVADITGRGGITYYADSVKGRFTISRDNAKNTVYLQMNSLKPEDTAVYYCAAERYNSKTIYRYDYWGQGTQVTVSS | high polyreactivity |
| QVQLVESGGGLVQAGGSLRLSCAASGRTFLVYAMGWYRQAPGKERELVATIRASTGSTYADSVKGRFTISRDNAKNTVYLQMNSLKPEDTAVYYCNAVHYFLYGYYSWGQGTQVTVSS | high polyreactivity |
| QVQLVESGGGLVQAGGSLRLSCAASGRTFLVYARGWYRQAPGKDRELVAAISISSGSTYYADSVKGRFTISRDNAKNTVYLQMNSLKPEDTAVYYCAAVYTYVKRASENDYWGQGTQVTVSS | low polyreactivity |
| QVQLVESGGGLVQAGGSLRLSCAASGRTFLVYTMGWYREAPGKERELVAAISWSDGSTYYADSVKGRFTISRDNAKNTVYLQMNSLKPEDTADYYCAARRTGYLYRYGYWGQGTQVTVSS | low polyreactivity |
